Results on one molecule are retold here after patent publication US20190119397A1 (ZIELBIO, published 2019).

Experiment [1] deals with plectin-1 on the surface of cancer cells (Homo sapiens, UniProt Q15149 1-4684). Description: cell-based or functional assay.
Experiment [2] deals with T1, recombinant human Sec8-His protein (human).
T1 construct: also called recombinant human C-terminal portion of Plectin-1 protein; pET-10NC-Plec C term
T1 chain: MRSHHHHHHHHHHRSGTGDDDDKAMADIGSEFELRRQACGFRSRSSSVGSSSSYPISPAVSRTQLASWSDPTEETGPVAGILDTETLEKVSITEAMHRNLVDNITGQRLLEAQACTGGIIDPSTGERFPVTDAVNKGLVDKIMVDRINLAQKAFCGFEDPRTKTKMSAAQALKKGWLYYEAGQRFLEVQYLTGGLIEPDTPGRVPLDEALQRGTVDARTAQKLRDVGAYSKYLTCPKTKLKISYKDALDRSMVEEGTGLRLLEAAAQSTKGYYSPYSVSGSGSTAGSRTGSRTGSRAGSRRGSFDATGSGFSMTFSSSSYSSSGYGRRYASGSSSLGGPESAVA
Description: in vitro binding assay on recombinant human Sec8-His protein (FIG. 3A).

Sequence of plectin-1 on the surface of cancer cells (Q15149 whole entry): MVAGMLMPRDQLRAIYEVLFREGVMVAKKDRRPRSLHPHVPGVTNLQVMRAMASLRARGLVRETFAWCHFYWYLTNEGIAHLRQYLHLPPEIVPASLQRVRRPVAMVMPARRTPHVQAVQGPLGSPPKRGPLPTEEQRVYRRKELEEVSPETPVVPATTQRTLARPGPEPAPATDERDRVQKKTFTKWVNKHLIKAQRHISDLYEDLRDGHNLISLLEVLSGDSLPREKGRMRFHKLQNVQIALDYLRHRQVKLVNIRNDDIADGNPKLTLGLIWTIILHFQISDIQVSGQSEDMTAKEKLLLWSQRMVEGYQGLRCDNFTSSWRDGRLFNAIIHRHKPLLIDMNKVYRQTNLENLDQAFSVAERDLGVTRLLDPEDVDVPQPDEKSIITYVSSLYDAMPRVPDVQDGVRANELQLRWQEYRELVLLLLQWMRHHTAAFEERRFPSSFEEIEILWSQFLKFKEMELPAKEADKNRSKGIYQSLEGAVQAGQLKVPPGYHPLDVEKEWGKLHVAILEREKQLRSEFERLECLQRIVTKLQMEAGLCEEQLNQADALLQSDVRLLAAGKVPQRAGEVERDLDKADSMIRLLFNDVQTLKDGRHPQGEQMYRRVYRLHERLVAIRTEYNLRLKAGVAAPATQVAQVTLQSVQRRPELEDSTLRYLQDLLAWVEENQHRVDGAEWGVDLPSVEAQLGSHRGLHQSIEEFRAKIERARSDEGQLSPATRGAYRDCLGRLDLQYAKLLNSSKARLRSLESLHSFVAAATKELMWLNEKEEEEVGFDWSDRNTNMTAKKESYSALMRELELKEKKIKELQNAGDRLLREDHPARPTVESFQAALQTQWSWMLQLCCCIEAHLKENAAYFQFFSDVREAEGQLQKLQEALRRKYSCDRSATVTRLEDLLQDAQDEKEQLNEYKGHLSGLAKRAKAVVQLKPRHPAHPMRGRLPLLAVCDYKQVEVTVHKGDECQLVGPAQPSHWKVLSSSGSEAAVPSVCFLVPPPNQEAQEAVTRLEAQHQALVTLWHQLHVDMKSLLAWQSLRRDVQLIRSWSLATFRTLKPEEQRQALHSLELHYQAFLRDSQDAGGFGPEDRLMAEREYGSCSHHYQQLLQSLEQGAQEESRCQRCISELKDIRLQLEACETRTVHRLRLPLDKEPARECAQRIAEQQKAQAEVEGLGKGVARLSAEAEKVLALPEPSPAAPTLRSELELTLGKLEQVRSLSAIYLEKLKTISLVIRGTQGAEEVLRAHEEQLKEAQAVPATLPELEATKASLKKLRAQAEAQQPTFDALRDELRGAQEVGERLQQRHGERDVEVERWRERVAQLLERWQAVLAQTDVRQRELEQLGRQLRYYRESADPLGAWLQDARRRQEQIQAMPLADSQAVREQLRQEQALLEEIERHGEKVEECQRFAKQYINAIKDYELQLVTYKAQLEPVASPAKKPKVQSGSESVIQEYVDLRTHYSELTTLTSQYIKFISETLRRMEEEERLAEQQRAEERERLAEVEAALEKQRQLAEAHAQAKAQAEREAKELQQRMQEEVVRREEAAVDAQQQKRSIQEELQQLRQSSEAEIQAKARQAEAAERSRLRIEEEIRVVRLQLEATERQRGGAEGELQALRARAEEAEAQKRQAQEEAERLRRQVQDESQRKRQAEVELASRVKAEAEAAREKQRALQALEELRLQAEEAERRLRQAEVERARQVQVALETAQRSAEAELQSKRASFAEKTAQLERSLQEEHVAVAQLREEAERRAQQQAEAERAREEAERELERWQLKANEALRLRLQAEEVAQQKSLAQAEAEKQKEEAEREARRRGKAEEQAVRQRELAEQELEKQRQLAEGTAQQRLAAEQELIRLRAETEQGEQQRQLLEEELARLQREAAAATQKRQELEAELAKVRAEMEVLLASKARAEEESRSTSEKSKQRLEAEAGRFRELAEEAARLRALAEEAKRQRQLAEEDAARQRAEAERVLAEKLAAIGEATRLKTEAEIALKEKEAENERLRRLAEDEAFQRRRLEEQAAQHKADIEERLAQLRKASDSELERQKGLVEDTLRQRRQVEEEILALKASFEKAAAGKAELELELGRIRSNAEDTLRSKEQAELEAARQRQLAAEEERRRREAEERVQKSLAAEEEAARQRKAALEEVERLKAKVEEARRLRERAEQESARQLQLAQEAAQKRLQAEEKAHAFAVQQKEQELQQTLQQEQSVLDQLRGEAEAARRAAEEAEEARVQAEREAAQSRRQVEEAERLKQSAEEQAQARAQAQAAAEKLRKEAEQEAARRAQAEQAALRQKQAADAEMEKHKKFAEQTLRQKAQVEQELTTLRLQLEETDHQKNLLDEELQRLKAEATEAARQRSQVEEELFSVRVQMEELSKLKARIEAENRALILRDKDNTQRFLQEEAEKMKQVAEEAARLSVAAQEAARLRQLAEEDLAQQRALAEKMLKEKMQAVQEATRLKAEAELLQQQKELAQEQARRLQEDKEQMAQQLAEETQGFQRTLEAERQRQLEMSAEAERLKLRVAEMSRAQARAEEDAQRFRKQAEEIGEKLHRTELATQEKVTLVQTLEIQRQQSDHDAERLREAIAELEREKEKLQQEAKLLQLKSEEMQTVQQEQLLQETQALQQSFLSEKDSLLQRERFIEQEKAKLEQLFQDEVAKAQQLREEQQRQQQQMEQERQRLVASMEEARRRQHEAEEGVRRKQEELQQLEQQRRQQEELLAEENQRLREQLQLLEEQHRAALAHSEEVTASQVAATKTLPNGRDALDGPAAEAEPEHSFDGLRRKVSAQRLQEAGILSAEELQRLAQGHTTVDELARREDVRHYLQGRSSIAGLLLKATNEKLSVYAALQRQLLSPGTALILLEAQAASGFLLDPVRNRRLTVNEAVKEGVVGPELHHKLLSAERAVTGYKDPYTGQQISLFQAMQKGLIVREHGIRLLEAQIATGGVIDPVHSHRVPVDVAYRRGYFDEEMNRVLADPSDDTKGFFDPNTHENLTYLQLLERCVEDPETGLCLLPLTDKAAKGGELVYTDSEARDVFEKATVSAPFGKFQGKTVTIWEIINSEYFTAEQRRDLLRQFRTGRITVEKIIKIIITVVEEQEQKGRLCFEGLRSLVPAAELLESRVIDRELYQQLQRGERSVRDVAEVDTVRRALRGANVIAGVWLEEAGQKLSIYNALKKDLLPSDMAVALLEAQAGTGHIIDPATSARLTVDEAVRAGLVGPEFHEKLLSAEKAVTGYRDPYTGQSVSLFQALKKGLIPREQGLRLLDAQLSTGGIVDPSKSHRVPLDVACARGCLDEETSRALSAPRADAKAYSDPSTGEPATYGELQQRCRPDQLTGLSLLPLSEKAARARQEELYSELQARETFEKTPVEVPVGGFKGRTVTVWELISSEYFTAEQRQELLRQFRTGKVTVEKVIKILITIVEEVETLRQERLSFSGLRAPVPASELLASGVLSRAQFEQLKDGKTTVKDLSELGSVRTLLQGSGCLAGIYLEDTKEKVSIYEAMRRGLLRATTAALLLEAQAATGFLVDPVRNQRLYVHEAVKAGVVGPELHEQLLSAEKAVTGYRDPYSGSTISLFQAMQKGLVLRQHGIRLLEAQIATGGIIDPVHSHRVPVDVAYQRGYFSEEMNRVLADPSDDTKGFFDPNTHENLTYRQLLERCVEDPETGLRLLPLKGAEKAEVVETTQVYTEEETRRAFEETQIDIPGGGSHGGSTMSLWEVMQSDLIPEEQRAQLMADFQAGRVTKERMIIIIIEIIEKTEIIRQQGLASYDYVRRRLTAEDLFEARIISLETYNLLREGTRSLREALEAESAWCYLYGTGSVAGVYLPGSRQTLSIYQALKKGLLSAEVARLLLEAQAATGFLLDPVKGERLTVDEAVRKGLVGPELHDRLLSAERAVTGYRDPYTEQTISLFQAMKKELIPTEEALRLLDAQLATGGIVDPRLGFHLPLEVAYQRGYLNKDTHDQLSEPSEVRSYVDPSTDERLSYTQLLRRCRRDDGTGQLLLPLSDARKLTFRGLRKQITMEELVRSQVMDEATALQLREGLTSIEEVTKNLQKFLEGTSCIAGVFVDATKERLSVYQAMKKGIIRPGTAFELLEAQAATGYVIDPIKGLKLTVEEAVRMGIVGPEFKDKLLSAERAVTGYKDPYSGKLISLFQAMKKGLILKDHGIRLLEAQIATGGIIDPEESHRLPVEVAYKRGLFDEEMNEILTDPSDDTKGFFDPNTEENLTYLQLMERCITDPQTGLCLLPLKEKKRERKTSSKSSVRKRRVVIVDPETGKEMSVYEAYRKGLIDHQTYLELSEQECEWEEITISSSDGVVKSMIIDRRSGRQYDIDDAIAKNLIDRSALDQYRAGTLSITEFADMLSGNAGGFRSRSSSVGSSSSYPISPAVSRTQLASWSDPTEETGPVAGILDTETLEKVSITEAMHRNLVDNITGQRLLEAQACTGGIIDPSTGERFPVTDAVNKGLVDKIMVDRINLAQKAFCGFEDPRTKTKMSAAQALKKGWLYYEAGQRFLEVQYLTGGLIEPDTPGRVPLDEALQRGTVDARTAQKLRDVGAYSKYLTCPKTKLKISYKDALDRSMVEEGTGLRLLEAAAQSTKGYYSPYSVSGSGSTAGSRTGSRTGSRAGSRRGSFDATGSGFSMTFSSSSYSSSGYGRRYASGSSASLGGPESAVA

B1: PAb1 (antibody, mouse IgG2b, kappa, V domains shown)
VH: QIQLVQSGPELKKPGETVKISCKASGYTFTDYSMHWVKQAPGKGLKWMGWINTETGEPTYADDFKGRFAFSLETSASTAYLQINNLKNEDTATYFCAPGGFAYWGQGTLVTVSA
VL: DIVMTQAAPSVPVTPGESVSISCRSSKSLLHSNGNTYLYWFLQRPGQSPQLLIYRMSNLASGVPDRFSGSGSGTAFTLRISRVEAEDVGVYYCMQHLEYPLTFGAGTKLELKR
notes: Mouse hybridoma monoclonal antibody; also called Plectin-1 mAb; Plectin-1mAb
Broadly, the Kd is the free concentration of one partner at which half of the binding sites on the other are occupied at equilibrium, for simple one-to-one binding. As to B1, in experiment [1], the “Plectin-1mAb EC50 (nM): concentration of mAb that reduced cell viability by 50%, L3.6pl cells, 72 hours” value amounted to 34 nM; the “Plectin-1mAb EC50 (nM): concentration of mAb that reduced cell viability by 50%, OVCAR8 cells, 72 hours” value amounted to 63 nM; the “Plectin-1mAb EC50 (nM): concentration of mAb that reduced cell viability by 50%, SKOV3 cells, 72 hours” value came out at 53 nM; the “Plectin-1mAb EC50 (nM): concentration of mAb that reduced cell viability by 50%, YapC cells, 72 hours” value was determined as 43 nM. Also, the Kd in experiment [2] is under 1 nM.
